Measured values as given in article PMC8220720, “Universal capability of 3-ketosteroid Δ^1-dehydrogenases to catalyze Δ^1-dehydrogenation of C17-substituted steroids” (Microbial Cell Factories, 2021).

How the values were obtained:
Test in all cases: purified protein
Assay type in all cases: biochemical, Sterolibacterium denitrificans
purified protein [1] = substrate: O=C1C(Cl)=CC(=Nc2ccc(O)cc2)C=C1Cl; conditions: apparent, electron acceptor, co-substrate cholest-4-en-3-one, 2% HBC, 2% EGME, 0.1 M potassium phosphate pH 6.5, 30 °C
purified protein [2] = substrate: CC(C)CCC[C@@H](C)[C@H]1CC[C@H]2[C@@H]3CCC4=CC(=O)CC[C@]4(C)[C@H]3CC[C@]12C; conditions: apparent, as total steroid concentration, DCPIP as acceptor, 2% HBC, 2% EGME, 0.1 M potassium phosphate pH 6.5, 30 °C
purified protein [3] = substrate: C[C@]12CCC(=O)C=C1CC[C@@H]1[C@@H]2CC[C@]2(C)C(=O)CC[C@@H]12; conditions: pH 6.5; 30.0 °C

B1: AcmB (Sterolibacterium denitrificans) (protein)
chain: MSIETNTYDVIVVGSGAGAMLAAARAHDLGLSVLVVEKSDKYGGTSAVSGGAVWIPNNSQMQIKDSFDEALTYLKAATQGLVAEDRLLAYLESAPQMVEYINANMTLQYFPCHRYPDYYQHLPGAKPGGRTMEPMLFDAALLGDEFANLRMAYTGTLLMGKASMTATEAHVMLAKEPGWMLQVIKSLGRYYLDLPWRLKSRHDRKRGLGNAMAAGLRHALLERKVPLWLNTPFESLITEGAENKRVTGIVVKRNGQTLQLTARRGVVLGAGGFERNQQMREQYLPKPTNAAWSATPPHNTGDTIRAAMDIGARAELMDWAWWVPSIHVPGEAAQTGLFAERNLPGCIVVNGKGQRFINEASPYLEFGAAMYENHARSGSAVPAWLIFDGKFRYNYPMGPLMPGQIQPDRKAWLGKVYWRDDTLEGLAKQIGVDAAGLKQSVELNNQYAQDGKDREFDKGGNVFDRYYGDYNVKPNPCLAPIGKPPYYAMRVDAGDIGTKGGLLTDKDARVLDESDRPIEGLYCIGNNSASVMGKAYPGAGGTLGPAMTFGFRAANHIAASK
notes: recombinant, purified; cloned, expressed and purified as in the authors' earlier work; FAD enzyme
Km (purified protein [1]): 37.3 ± 3.3 µM
kcat (purified protein [1]): 5.8 ± 0.2 s⁻¹
Km (purified protein [2]): 23.7 ± 1.16 µM
kcat (purified protein [2]): 5.8 ± 0.2 s⁻¹
kcat/Km (purified protein [2]): 245000 ± 1000 M⁻¹ s⁻¹
Km (purified protein [3]): 529.2 ± 32.5 µM
kcat/Km (purified protein [3]): 87000 ± 5000 M⁻¹ s⁻¹
